# Literature values, collected in PMC2650229.
# Molecular target: ERp57 b' domain (Homo sapiens) (UniProt P30101)
# UniProt P30101, sequence (P30101 241-360): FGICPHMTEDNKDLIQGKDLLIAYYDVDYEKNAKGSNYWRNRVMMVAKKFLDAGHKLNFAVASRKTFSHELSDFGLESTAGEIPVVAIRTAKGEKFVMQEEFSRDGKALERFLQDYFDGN
substance,measurement,value
calreticulin P-domain (from UniProt P27797),Kd,2600 nM
